According to article PMC3902948:

B1: Prp43 (Saccharomyces cerevisiae S288C) (protein)
chain: MGSKRRFSSEHPDPVETSIPEQAAEIAEELSKQHPLPSEEPLVHHDAGEFKGLQRHHTSAEEAQKLEDGKINPFTGREFTPKYVDILKIRRELPVHAQRDEFLKLYQNNQIMVFVGETGSGKTTQIPQFVLFDEMPHLENTQVACTQPRRVAAMSVAQRVAEEMDVKLGEEVGYSIRFENKTSNKTILKYMTDGMLLREAMEDHDLSRYSCIILDEAHERTLATDILMGLLKQVVKRRPDLKIIIMSATLDAEKFQRYFNDAPLLAVPGRTYPVELYYTPEFQRDYLDSAIRTVLQIHATEEAGDILLFLTGEDEIEDAVRKISLEGDQLVREEGCGPLSVYPLYGSLPPHQQQRIFEPAPESHNGRPGRKVVISTNIAETSLTIDGIVYVVDPGFSKQKVYNPRIRVESLLVSPISKASAQQRAGRAGRTRPGKCFRLYTEEAFQKELIEQSYPEILRSNLSSTVLELKKLGIDDLVHFDFMDPPAPETMMRALEELNYLACLDDEGNLTPLGRLASQFPLDPMLAVMLIGSFEFQCSQEILTIVAMLSVPNVFIRPTKDKKRADDAKNIFAHPDGDHITLLNVYHAFKSDEAYEYGIHKWCRDHYLNYRSLSAADNIRSQLERLMNRYNLELNTTDYESPKYFDNIRKALASGFFMQVAKKRSGAKGYITVKDNQDVLIHPSTVLGHDAEWVIYNEFVLTSKNYIRTVTSVRPEWLIEIAPAYYDLSNFQKGDVKLSLERIKEKVDRLNELKQGKNKKKSKHSKK
B2: Prp43/Ntr1(1–120) (Saccharomyces cerevisiae S288C) (protein)
chain: B1 chain
B3: Prp43/Ntr1(51–110) (Saccharomyces cerevisiae S288C) (protein)
chain: B1 chain

What follows are proteins tested on Nc1ncnc2c1ncn2[C@@H]1O[C@H](COP(=O)(O)OP(=O)(O)OP(=O)(O)O)[C@@H](O)[C@H]1O (assay: purified protein). Settings: no RNA, 100 mM NaCl, 10 mM Tris pH 7.5, 2 mM MgCl2.

Protein | Km | Vmax
B1 | 11.07 ± 2.07 µM | 2.43 µM/min
B2 | 16.37 ± 1.81 µM | 11.2 µM/min
B3 | 13.42 ± 1.93 µM | 9.54 µM/min
